Measurements from patent publication US20240327535A1 (EISAI R AND D MANAGEMENT, published 2024).
Residue numbers refer to the chain shown, from its start. Where two headings read alike, the source gives them in different places.

Experiments:
Test in all cases: Octet BLI; Fab 200 nM
[1] = target: T1, extracellular domain of human BCMA (human, UniProt Q02223 1-54)
T1 construct: amine-linked to Octet AR2G tips; also called hsBCMA; BCMA (human)
T1 sequence: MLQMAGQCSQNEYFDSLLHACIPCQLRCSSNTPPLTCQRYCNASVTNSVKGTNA

[2] = target: T2, extracellular domain of rhesus monkey BCMA (rhesus monkey, UniProt F7FFA0 1-53)
T2 construct: extracellular domain; also called RhBCMA

[3] = target: T1, extracellular domain of human BCMA; remark: listed apart in the source
[4] = target: T2, extracellular domain of rhesus monkey …; remark: listed apart in the source
[5] = target: T1, extracellular domain of human BCMA; remark: listed apart in the source
[6] = target: T2, extracellular domain of rhesus monkey …; remark: listed apart in the source

T2 sequence (F7FFA0 entry or part of it): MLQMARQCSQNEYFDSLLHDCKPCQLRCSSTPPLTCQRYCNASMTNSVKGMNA

B1: AB200-(2Vk30)_R2-VH-v40 (Fab, V domains shown)
VH: QVQLVQSGAEVKKPGSSVKVSCKASGGTFTNYWIHWVRQAPGQGLEWMGATYRIHSTTYYAQKFKSRVTITADKSTSTAYMELSSLRSEDTAVYYCARGAIYHGFDVIDNWGQGTLVTVSS
VL: DIQMTQSPSSLSASVGDRVTITCRASQSISSYLNWYQQKPGKAPKLLIYATSNLQIGVPSRFSGSGSGTDFTLTISSLQPEDFATYYCQQYRRIPWTFGQGTKLEIKR
**Q.** For B1, which Kd [1] is on record?
**A.** 15.5 nM

**Q.** And the Kd [2]?
**A.** 32.5 nM

B2: AB200-(2Vk30)_R2-VH-v43 (Fab, V domains shown)
VH: B1 VH with A50G, T57D
VL: B1 VL
**Q.** What does the source list for B2?
**A.** Kd [1]: 6.82 nM; Kd [2]: 25.8 nM

B3: AB200-(2Vk30)_R2-VH-v45 (Fab, V domains shown)
VH: B1 VH with F29Y, T30S, Y59N, A61N, Y102F, F105Y
VL: B1 VL
**Q.** What does the source list for B3?
**A.** Kd [1]: 720 nM; Kd [2]: 3080 nM

B4: AB200-(2Vk30)_R2-VH-v51 (Fab, V domains shown)
VH: B1 VH with T28S, T30S, A50G, H55Q, T57D, A61N, F105Y, D109E
VL: B1 VL
**Q.** Which Kd [1] does the source give for B4 here?
**A.** 20.3 nM

**Q.** And the Kd [2]?
**A.** 68.9 nM

B5: AB200-(2Vk30)_R2-VH-v59 (Fab, V domains shown)
VH: B1 VH with T30S, A50G, T57D, F105Y, D109E
VL: B1 VL
**Q.** What does the source list for B5?
**A.** Kd [1]: 37.8 nM; Kd [2]: 121 nM

B6: AB200-(2Vk30)_R2-VH-v65 (Fab, V domains shown)
VH: B1 VH with T30S, H55Q, A61N
VL: B1 VL
**Q.** How did the Kd [1] turn out when B6 was run?
**A.** 27.3 nM

**Q.** And the Kd [2]?
**A.** 46.8 nM

B7: AB200-(2Vk30)_R2-VH-v67 (Fab, V domains shown)
VH: B1 VH with T30S, A61N, Q62E, I101V, F105Y
VL: B1 VL
**Q.** B7 was tested. Which Kd [1] did it give?
**A.** 16.8 nM

**Q.** And the Kd [2]?
**A.** 35.7 nM

B8: AB200-(2Vk30)_R2-VH-v71 (Fab, V domains shown)
VH: B1 VH with T30S, T57D, Y59N, A61N, Q62E, Y102F, F105Y
VL: B1 VL
**Q.** For B8, which Kd [1] is on record?
**A.** 29.7 nM

**Q.** And the Kd [2]?
**A.** 64.1 nM

B9: AB200-(2Vk30)_R2-VH-v74 (Fab, V domains shown)
VH: B1 VH with T30S, T57D, Q62E
VL: B1 VL
**Q.** Which results are given for B9?
**A.** Kd [1]: 2.17 nM; Kd [2]: 9.83 nM

B10: AB200-(2Vk35)_R2-VH-v8 (Fab, V domains shown)
VH: B1 VH with F29Y, T30S, A50G, I54S, H55Q, T57D, A61N
VL: B1 VL with L33I, I56S
**Q.** Which Kd [3] does the source give for B10 here?
**A.** 12.1 nM

**Q.** And the Kd [4]?
**A.** 38 nM

B11: AB200-(2Vk35)_R2-VH-v9 (Fab, V domains shown)
VH: B1 VH with F29Y, T30S, I54S, H55Q, T57D, Y59N, A61N
VL: B1 VL with L33I, I56S
**Q.** Which results are given for B11?
**A.** Kd [3]: 49.3 nM; Kd [4]: 103 nM

B12: AB200-(2Vk35)_R2-VH-v11 (Fab, V domains shown)
VH: B1 VH with F29Y, T30S, I54S, T57D, Y59N, A61N, Q62E, I101V, F105Y
VL: B1 VL with L33I, I56S
**Q.** How did the Kd [3] turn out when B12 was run?
**A.** 47 nM

**Q.** And the Kd [4]?
**A.** 130 nM

B13: AB200-(2Vk35)_R2-VH-v15 (Fab, V domains shown)
VH: B1 VH with T28S, T30S, I54S, H55Q, A61N, Y102F, F105Y
VL: B1 VL with L33I, I56S
**Q.** Which Kd [3] does the source give for B13 here?
**A.** 25.5 nM

**Q.** And the Kd [4]?
**A.** 48.6 nM

B14: AB200-(2Vk35)_R2-VH-v26 (Fab, V domains shown)
VH: B1 VH with T30S, I54S, Y102F, F105Y
VL: B1 VL with L33I, I56S
**Q.** For B14, which Kd [3] is on record?
**A.** 20.9 nM

**Q.** And the Kd [4]?
**A.** 40.7 nM

B15: AB200-(2Vk35)_R2-VH-v32 (Fab, V domains shown)
VH: B1 VH with T30S, I54S, T57D, Y59N, A61N, F64Y, Y102F, F105Y
VL: B1 VL with L33I, I56S
**Q.** B15 was tested. Which Kd [3] did it give?
**A.** 29.1 nM

**Q.** What about the Kd [4] of the same binder?
**A.** 67.3 nM

B16: AB200-(2Vk35)_R2-VH-v36 (Fab, V domains shown)
VH: B1 VH with T30S, I54S, T57D, Q62E, Y102F, F105Y
VL: B1 VL with L33I, I56S
**Q.** With B16 as the binder, how does the Kd [3] read?
**A.** 3.15 nM

**Q.** And the Kd [4]?
**A.** 14.8 nM

B17: AB200-(2Vk35)_R2-VH-v38 (Fab, V domains shown)
VH: B1 VH with T30S, I54S, H55Q, T57D, A61N, Q62E
VL: B1 VL with L33I, I56S
**Q.** Which results are given for B17?
**A.** Kd [3]: 1.89 nM; Kd [4]: 9.59 nM

B18: AB200-(2Vk35)_R2-VH-v46 (Fab, V domains shown)
VH: B1 VH with F29Y, T30S, H55Q, T57D, Y59N, A61N, F105Y, D109E
VL: B1 VL with L33I, I56S
**Q.** B18 was tested. Which Kd [3] did it give?
**A.** 103 nM

**Q.** What about the Kd [4] of the same binder?
**A.** 287 nM

B19: AB200-(2Vk35)_R2-VH-v48 (Fab, V domains shown)
VH: B1 VH with F29Y, T30S, A50G, A61N
VL: B1 VL with L33I, I56S
**Q.** How did the Kd [3] turn out when B19 was run?
**A.** 36.6 nM

**Q.** What about the Kd [4] of the same binder?
**A.** 52 nM

B20: AB200-(2Vk35)_R2-VH-v49 (Fab, V domains shown)
VH: B1 VH with F29Y, T30S, H55Q, A61N, F105Y, D109E
VL: B1 VL with L33I, I56S
**Q.** What does the source list for B20?
**A.** Kd [3]: 63.2 nM; Kd [4]: 126 nM

B21: AB200-(2Vk35)_R2-VH-v52 (Fab, V domains shown)
VH: B1 VH with T28S, T30S, H55Q, T57D, Y102F, F105Y
VL: B1 VL with L33I, I56S
**Q.** What does the source list for B21?
**A.** Kd [3]: 6.24 nM; Kd [4]: 25.7 nM

B22: AB200-(2Vk35)_R2-VH-v55 (Fab, V domains shown)
VH: B1 VH with T28S, T30S, A61N, F64Y, I101V, F105Y
VL: B1 VL with L33I, I56S
**Q.** What does the source list for B22?
**A.** Kd [3]: 19.7 nM; Kd [4]: 43.1 nM

B23: AB200-(2Vk35)_R2-VH-v56 (Fab, V domains shown)
VH: B1 VH with T28S, T30S, T57D, F64Y, Y102F, F105Y
VL: B1 VL with L33I, I56S
**Q.** B23 was tested. Which Kd [3] did it give?
**A.** 11.3 nM

**Q.** What about the Kd [4] of the same binder?
**A.** 44.7 nM

B24: AB200-(2Vk35)_R2-VH-v62 (Fab, V domains shown)
VH: B1 VH with T30S, A50G, T57D, A61N, Q62E, F105Y, D109E
VL: B1 VL with L33I, I56S
**Q.** For B24, which Kd [3] is on record?
**A.** 14.5 nM

**Q.** And the Kd [4]?
**A.** 49 nM

B25: AB200-(2Vk35)_R2-VH-v63 (Fab, V domains shown)
VH: B1 VH with T30S, Y59N, A61N, K74E, I101V, F105Y
VL: B1 VL with L33I, I56S
**Q.** Which results are given for B25?
**A.** Kd [3]: 27.1 nM; Kd [4]: 9.56 nM

B26: AB200-(2Vk35)_R2-VH-v69 (Fab, V domains shown)
VH: B1 VH with T30S, H55Q, T57D, Y59N, A61N, I101V, F105Y
VL: B1 VL with L33I, I56S
**Q.** Which results are given for B26?
**A.** Kd [3]: 16.2 nM; Kd [4]: 46.6 nM

B27: AB200-(2Vk35)_R2-VH-v76 (Fab, V domains shown)
VH: B1 VH with T30S, H55Q, T57D, A61N, Q62E
VL: B1 VL with L33I, I56S
**Q.** Which results are given for B27?
**A.** Kd [3]: 1.93 nM; Kd [4]: 8.46 nM

B28: AB200-(2Vk44)_R2-VH-v1 (Fab, V domains shown)
VH: B1 VH with A50G, I54S, T57D, A61N, F64Y, F105Y, D109E
VL: B1 VL with L33I, I94L, T97S
**Q.** B28 was tested. Which Kd [5] did it give?
**A.** 11.8 nM

**Q.** What about the Kd [6] of the same binder?
**A.** 40 nM

B29: AB200-(2Vk44)_R2-VH-v7 (Fab, V domains shown)
VH: B1 VH with F29Y, T30S, I54S
VL: B1 VL with L33I, I94L, T97S
**Q.** B29 was tested. Which Kd [5] did it give?
**A.** 40.6 nM

**Q.** And the Kd [6]?
**A.** 71.7 nM

B30: AB200-(2Vk44)_R2-VH-v14 (Fab, V domains shown)
VH: B1 VH with T28S, T30S, I54S, A61N, Q62E, I101V, F105Y
VL: B1 VL with L33I, I94L, T97S
**Q.** Which results are given for B30?
**A.** Kd [5]: 7.55 nM; Kd [6]: 16.9 nM

B31: AB200-(2Vk44)_R2-VH-v22 (Fab, V domains shown)
VH: B1 VH with T30S, A50G, I54S, H55Q, T57D, A61N, I101V, F105Y
VL: B1 VL with L33I, I94L, T97S
**Q.** Which results are given for B31?
**A.** Kd [5]: 2.31 nM; Kd [6]: 11.1 nM
